{"source": "patent US5981483", "key": {"[1]": {"target": "purified human TGF-β1 (human) (UniProt P01137)"}, "[2]": {"target": "purified human TGF-β1 (human) (UniProt P01137)", "remark": "listed apart in the source"}, "TGF-β2": {"target": "TGF-β2", "assay": "SPR (BIAcore); analyte over immobilized cytokine"}, "BMP-4": {"target": "BMP-4", "assay": "SPR (BIAcore); analyte over immobilized cytokine"}}}
{"substance": "bovine thyroglobulin (from UniProt P01267)", "values": [{"measurement": "IC50, neutralization of TGF-β1 activity in the Mv1Lu growth inhibition assay", "setting": "[1]", "result": 220, "unit": "nM"}, {"measurement": "percent neutralization of the antiproliferative activity of TGF-β1 (3H-thymidine incorporation, Mv1Lu cells)", "setting": "[2]", "result": 150, "unit": "%"}, {"measurement": "Kd", "setting": "TGF-β2", "result": 3800, "unit": "nM"}, {"measurement": "koff", "setting": "TGF-β2", "result": 0.005, "unit": "s⁻¹"}, {"measurement": "kon", "setting": "TGF-β2", "result": 1300, "unit": "M⁻¹ s⁻¹"}, {"measurement": "Kd", "setting": "BMP-4", "result": 20, "unit": "nM"}, {"measurement": "koff", "setting": "BMP-4", "result": 0.0011, "unit": "s⁻¹"}, {"measurement": "kon", "setting": "BMP-4", "result": 54000, "unit": "M⁻¹ s⁻¹"}]}
